The values that follow come from US20180209983A1 (SUBDOMAIN, published 2018).

Positions count from the first letter of the chain named.

Sequences and labels used below:
B1: bb10 (DBDpp clone from the F2NNK library), phage-displayed (designed binder)
chain: MGSWAEFKQRLAAIKTRLEALGGSEAELAAFLGEIWAFEMELAAYKGKGNPEVEALGREAAAIRMELQAYRHN
notes: Tested as rescued M13 phage; In the F2NNK library the DBDpp carries an N-terminal FLAG tag and is fused at its C-terminus to M13 pIII (pComb phagemid); also called the 89 clones
B2: DBDpp of SEQ ID NO: 37, phage-displayed (designed binder)
chain: MGSWLWFKIFLAEIKYFLEALGGSEAELAAFDFEIHAFHVELFAYKGKGNPEVEVLREVAAEIRWDLQAYRHN
B3: DBDpp of SEQ ID NO: 61, phage-displayed (designed binder)
chain: MGSWYEFDDRLNAIHDRLQALGGSEAELAAFEKEIAAFESELQAYKGKGNPEVEDLRDDAAFIRRFLQAYRHN
notes: F3 library; rescued M13 phage clone, DBDpp fused to pIII
B4: DBDpp of SEQ ID NO: 60, phage-displayed (designed binder)
chain: B3 chain with D8T, D9V, N12E, D16E, Q19K, D55I
notes: as for B3
B5: DBDpp of SEQ ID NO: 35, phage-displayed (designed binder)
chain: MGSWSEFYNRLDAIESRLLALGGSEAELALFEIQIARFEKVLQAYKGKGNPEVEALRGEARAIFAELYAYRHN
B6: DBDpp of SEQ ID NO: 36, phage-displayed (designed binder)
chain: MGSWYEFYNRLYAIEIRLYALGGSEAELAAFEKEIAAFESELQAYKGKGNPEVERLRVRAAKIRVILQAYRHN
B7: DBDpp of SEQ ID NO: 30, phage-displayed (designed binder)
chain: MGSWHYFKDHLAEIKGLLEALGGSEAELAHFEMAIADFEHNLQYYKGKGNPEVEALRKEAAAIRDELQAYRHN
notes: F1 library; rescued M13 phage clone, DBDpp fused to pIII
B8: DBDpp of SEQ ID NO: 31, phage-displayed (designed binder)
chain: B7 chain with D9G, G16N, L17H, M33R, D37A, H40R, N41S, Y44W
notes: as for B7
B9: DBDpp of SEQ ID NO: 32, phage-displayed (designed binder)
chain: B7 chain with H5I, D9E, E13Y, G16K, L17E, M33S, D37V, H40S, N41T
notes: as for B7
B10: DBDpp of SEQ ID NO: 33, phage-displayed (designed binder)
chain: B7 chain with H5T, D9E, G16Y, L17M, M33V, H40K, N41M
notes: as for B7
B11: DBDpp of SEQ ID NO: 34, phage-displayed (designed binder)
chain: B7 chain with H5W, Y6L, G16T, L17A, D37A, H40K, N41Q
notes: as for B7
B12: DBDpp of SEQ ID NO: 28, phage-displayed (designed binder)
chain: MGSWVYFKEHLAWIKTELEALGGSEAELAHFEHSIADFEMSLQFYKGKGNPEVEALRKEAAAIRDELQAYRHN
notes: F1 library
B13: DBDpp of SEQ ID NO: 29, phage-displayed (designed binder)
chain: MGSWFYFKQHLAWIKSYLEALGGSEAELAHFERAIAAFEQHLQMYKGKGNPEVEALRKEAAAIRDELQAYRHN
notes: as for B7
B14: DBDpp of SEQ ID NO: 40, phage-displayed (designed binder)
chain: B3 chain with D8Q, D9N, N12H, D16E, Q19N, D55L, R65H
notes: as for B3
B15: DBDpp of SEQ ID NO: 41, phage-displayed (designed binder)
chain: B3 chain with Y5F, D8Q, N12T, H15N, D16E, Q19S, D55T, D58S
notes: as for B3
B16: DBDpp of SEQ ID NO: 44, phage-displayed (designed binder)
chain: MGSWFEFENRLHAIVHRLGALGGSEAELAAFEKEIAAFESELQAYKGKGNPEVETLRADAAFIRHYLQAYRHN
notes: as for B3
B17: DBDpp of SEQ ID NO: 38, phage-displayed (designed binder)
chain: B3 chain with Y5T, D8Q, D9S, N12D, D16S, Q19R, D55L, R65H
notes: as for B3
B18: DBDpp of SEQ ID NO: 43, phage-displayed (designed binder)
chain: B3 chain with D8N, D9H, N12D, H15S, D16K, Q19N, D55E, D58G, R65H
notes: as for B3
B19: DBDpp of SEQ ID NO: 42, phage-displayed (designed binder)
chain: B3 chain with D8E, D9S, N12D, D16E, Q19H, D55N, D58G, R65H
notes: as for B3
B20: DBDpp of SEQ ID NO: 39, phage-displayed (designed binder)
chain: B3 chain with Y5Q, H15K, D16A
notes: as for B3
B21: DBDpp of SEQ ID NO: 45, phage-displayed (designed binder)
chain: MGSWVVFKVDLATIKYILEALGGSEAELAEFEGEIAGFEYSLQFYKGKGNPEVEALRKEAAAIRDELQAYRHN
notes: F1 library
B22: DBDpp of SEQ ID NO: 47, phage-displayed (designed binder)
chain: MGSWVMFKWLLADIKSHLEALGGSEAELAFFEGFIAAFETHLQVYKGKGNPEVEALRKEAAAIRDELQAYRHN
notes: as for B7
B23: DBDpp of SEQ ID NO: 48, phage-displayed (designed binder)
chain: MGSWYAFKDYLADIKGWLEALGGSEAELAFFEIFIARFELELQAYKGKGNPEVEALRKEAAAIRDELQAYRHN
notes: as for B7
B24: DBDpp of SEQ ID NO: 46, phage-displayed (designed binder)
chain: MGSWTIFKEWLAFIKTDLEALGGSEAELAFFEGWIASFEMELQKYKGKGNPEVEALRKEAAAIRDELQAYRHN
notes: as for B7

T2 sequence (Q9NZQ7 19-238 limits assumed): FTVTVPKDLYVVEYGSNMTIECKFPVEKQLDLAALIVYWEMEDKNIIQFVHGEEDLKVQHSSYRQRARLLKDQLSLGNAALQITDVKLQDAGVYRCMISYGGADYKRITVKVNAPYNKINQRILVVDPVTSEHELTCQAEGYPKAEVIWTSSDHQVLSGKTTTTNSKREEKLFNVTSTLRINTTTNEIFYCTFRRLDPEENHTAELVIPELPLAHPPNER
T5 sequence (Q15116 25-167 limits assumed): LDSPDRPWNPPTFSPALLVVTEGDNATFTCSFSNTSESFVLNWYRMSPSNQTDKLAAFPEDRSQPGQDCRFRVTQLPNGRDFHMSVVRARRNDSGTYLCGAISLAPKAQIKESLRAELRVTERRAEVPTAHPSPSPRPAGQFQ
T1 sequence (Q07011 24-186 limits assumed): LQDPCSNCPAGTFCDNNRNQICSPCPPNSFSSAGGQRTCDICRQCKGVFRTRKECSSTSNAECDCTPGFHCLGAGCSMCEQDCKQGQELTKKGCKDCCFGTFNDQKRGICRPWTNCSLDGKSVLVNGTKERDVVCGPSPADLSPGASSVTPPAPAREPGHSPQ

The first assay has as its target T1, recombinant, biotinylated, Human 4-1BB/TNFRSF9/CD137-Fc (human, UniProt Q07011 24-186, biotinylated (site not stated)).
T1 construct: Selection and screening target of the phage ELISA; also called 4-1BB/CD137; not shown: Fc portion
Nature of the assay: phage ELISA of rescued clones on human CD137-Fc. An excerpt: The F2NNK DBD library was used in five rounds of selection against recombinant, biotinylated, Human 4-1BB/TNFRSF9/CD137-Fc.
Background: In an ELISA, binding on a coated surface is turned into a signal by an enzyme label.
In the case of B1, the “fold of ELISA OD over control (IgG Fc)” value came to 5.3 fold.

For the next assay, the target named is purified recombinant KIR-Fc protein. Nature of the assay: phage ELISA; signal on target-Fc over non-specific control (e.g. IgG1-Fc).
Consider B2, for which the ELISA ratio was 4.17.

Another assay has as its target T2, purified recombinant PD-L1-Fc protein (UniProt Q9NZQ7 19-238).
T2 construct: also called B7-H1; not shown: Fc portion
Described as above. As to the method: (§1) Selections were also performed using F1, F2, F3, C1 & C2 trinucleotide phosphoramidite libraries. In most cases, libraries were pooled prior to use in selection. By combining equal volumes of the individual libraries, Pool F (libraries F1, F2 and F3) and Pool C (libraries C1 and C2) were generated. These libraries were used in selections for DBDpp binders to 4-1BB/CD137 as well as a larger panel of purified recombinant “target”-Fc proteins, including CD47, CTLA4, DR5, KIR, LAG3, OX40, PD1, PD-L1 and TIM3. (Many of these targets are considered immuno-regulatory factors (Pardoll et al., Nat. Rev. Cancer 12:252-264 (2012)). After incubation of the target with the pools of DBDpp phage libraries, bound phage-target complexes were captured and separated from unbound phage with protein A beads (target proteins were Fc fusions). After three rounds of selection, rescued phage clones were screened by ELISA for binding to the selected target.
(§2) For each target, approximately 90 DBDpp phage clones were screened by ELISA for binding to the target protein and as well as a non-specific control (e.g., IgG1-Fc). […] In some instances, for the ELISA screening plate in which the majority of DBDpp clones were positive, the entire plate was sequenced.
As to B3, the ELISA ratio amounted to 12.2.
As to B4, the ELISA ratio came to 17.3.

In the next assay the target is purified recombinant KIR-Fc protein. Nature of the assay: phage ELISA; signal on target-Fc over non-specific control (e.g. IgG1-Fc); average where several clones.
As for B5, the ELISA ratio came to 8.4.
On the same count and under the same terms, the result for B6 reads 4.24.

The target in a further assay is T3, purified recombinant DR5-Fc protein (UniProt O14763-2 56-182, limits assumed).
T3 construct: also called TRAIL-R2; not shown: Fc portion
T3 sequence (O14763 56-182 limits assumed): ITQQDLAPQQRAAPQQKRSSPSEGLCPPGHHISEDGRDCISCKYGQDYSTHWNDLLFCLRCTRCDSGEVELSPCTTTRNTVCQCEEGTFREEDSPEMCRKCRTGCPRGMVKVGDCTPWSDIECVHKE
The assay is described as above. As to the method: as §1, §2
Consider B7, for which the ELISA ratio stood at 11.4.
Still for that read-out and setting: with B8 the figure was 10.8; with B9, 10.7.
On the same count and under the same terms, with B10 the figure was 10.3.
Take B11: the ELISA ratio was determined as 9.75.
Still for that read-out and setting: the result for B12 reads 12.1.
The same measure, in the same setting: the result for B13 reads 11.8.

The target of another assay is T2, purified recombinant PD-L1-Fc protein. Described as above. As to the method:
as §1, §2
Turning to B14, the ELISA ratio amounted to 6.34.
Still for that read-out and setting: the result for B15 reads 6.01; that for B16, 2.76; that for B17, 8.68.
The same measure, in the same setting: the result for B18 reads 2.98.
Same read-out and setting: with B19 the figure was 4.88; with B20, 7.41.

In another assay the target is T4, purified recombinant TIM3-Fc protein (UniProt Q8TDQ0 22-202, limits assumed).
T4 construct: not shown: Fc portion
Described as above. As for the experimental part:
as §1, §2
For B21, the ELISA ratio came to 5.79.

A further assay addresses T5, purified recombinant PD1-Fc protein (UniProt Q15116 25-167, limits assumed).
T5 construct: not shown: Fc portion
Described as above. As for the experimental part: as §1, §2
Turning to B22, the ELISA ratio was 8.13.
Still for that read-out and setting: with B23 the figure was 3.29; with B24, 17.1.
